From the supplement of paper PMC6757056
± gives the standard deviation of the averaged measurements.

B1: library; a variant is named by its letters at N, in order (parent)
chain: GCUGUCACCGGUGCUUGGUACGUUAUAUUCAGCCGGUCUGAUGAGUCUNNNNNNAGACGAAACAGC

Columns and labels:
[1] = variants of: B1; test: FACS-Seq fitted mean relative fluorescence mCherry/BFP without ligand (log10 relative fluorescence); HEK293T overexpressing SLC46A1; higher = higher reporter protein expression; conditions: without (6R,S)-folinic acid; ligand present: no
In short: (§1)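 Sorting into 6 bins by mCherry/BFP followed 48 h of incubation with or without ligand. The cells were enriched HEK293T libraries lentivirally bearing an mCherry reporter with the ribozyme switch and an EF1α-BFP marker, and bin genomic DNA was PCR-amplified, barcoded and sequenced on MiSeq. Fluorescence is the fitted normal mean of the bin counts. Means were fitted on log10(mCherry/BFP), scaled to five spiked-in control ribozymes.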

[2] = variants of: B1; test: normalized RNA/DNA level without ligand (relative to sTRSVctl = 100) (log10 (% of sTRSVctl)); HEK293T overexpressing SLC46A1; higher = less ribozyme self-cleavage, higher mRNA level; conditions: without (6R,S)-folinic acid; ligand present: no
In short: (§2)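 HEK293T cells received ligand, where used, 1 h before being transfected with 4 µg per 6-well well of library plasmids encoding reporter-linked ribozyme switches. After 72 h, RNA was extracted with EDTA and sequenced. RNA level was derived from RNA reads per DNA read, normalized to a spiked-in non-cleaving sequence or the top sequences, then scaled and log-transformed. Values were ×100 then log10, the top set was 25 sequences, and the minimum was 100 DNA reads.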

[3] = variants of: B1; test: FACS-Seq fitted mean relative fluorescence mCherry/BFP with ligand (log10 relative fluorescence); HEK293T overexpressing SLC46A1; ligand concentration (+) FACS-Seq: 6 mM; higher = higher reporter protein expression; conditions: with (6R,S)-folinic acid; ligand present: yes
In short: as §1

[4] = variants of: B1; test: normalized RNA/DNA level with ligand (relative to sTRSVctl = 100) (log10 (% of sTRSVctl)); HEK293T overexpressing SLC46A1; ligand concentration (+) RNA-Seq: 6 mM; higher = less ribozyme self-cleavage, higher mRNA level; conditions: with (6R,S)-folinic acid; ligand present: yes
In short: as §2

| Variant | FACS-Seq fitted mean (log10) [1] | normalized RNA/DNA level without ligand (log10) [2] | FACS-Seq fitted mean (log10) [3] | normalized RNA/DNA level with ligand (log10) [4] |
| --- | --- | --- | --- | --- |
| AUAUUC | -0.738 ± 0.81 | 2.035 ± 0.019 | -1.5 ± 0.9 | 2.031 ± 0.01 |
| AUAUUG | 0.176 ± 0.067 | 1.896 ± 0.0041 | 0.136 ± 0.13 | 1.97 ± 0.011 |
| CUCCGG | 0.136 ± 0.061 | 2.044 ± 0.0029 | -0.307 ± 0.12 | 2.05 ± 0.028 |
| CUCCGC | 0.443 ± 0.04 | 2.042 ± 0.0057 | 0.294 ± 0.047 | 1.985 ± 0.019 |
| GUGCUG | -0.457 ± 0.06 | 2.077 ± 0.012 | -0.879 ± 0.14 | 2.05 ± 0.065 |
| GUAGGG | 0.666 ± 0.045 | 1.881 ± 0.0094 | 0.643 ± 0.24 | 1.99 ± 0.024 |
| UUGGGG | 0.207 ± 0.029 | 1.824 ± 0.0037 | 0.521 ± 0.12 | 2.02 ± 0.036 |
| UUGGGU | 0.184 ± 0.18 | 1.943 ± 0.0059 | 0.455 ± 0.16 | 1.98 ± 0.033 |
| AUCACA | 0.256 ± 0.074 | 2.004 ± 0.0041 | 0.0653 ± 0.038 | 2.02 ± 0.032 |
| GUGCCG | 0.617 ± 0.24 | 2.0438 ± 0.0018 | 0.702 ± 0.27 | 2.04 ± 0.052 |
| GUAUUU | 0.142 ± 0.24 | 2 ± 0.022 | 0.173 ± 0.0069 | 2.01 ± 0.033 |
| GUGAUA | 0.573 ± 0.073 | 1.97 ± 0.017 | 0.371 ± 0.036 | 2 ± 0.022 |
| UUCAAA | 0.198 ± 0.18 | 1.972 ± 0.0074 | 0.0558 ± 0.029 | 2.009 ± 0.019 |
| UUCAAG | 0.372 ± 0.12 | 1.85 ± 0.014 | 0.562 ± 0.035 | 2.01 ± 0.034 |
| UUCAAU | 0.465 ± 0.017 | 2.004 ± 0.013 | 0.748 ± 0.3 | 1.98 ± 0.052 |
| AUGGAG | 0.271 ± 0.039 | 1.735 ± 0.0043 | 0.622 ± 0.21 | 1.97 ± 0.02 |
| AUGGAA | 0.0999 ± 0.019 | 1.919 ± 0.0071 | -0.0772 ± 0.045 | 1.993 ± 0.0063 |
| AUGGAC | 0.279 ± 0.031 | 1.955 ± 0.0055 | 0.259 ± 0.12 | 1.99 ± 0.022 |

| Variant | FACS-Seq fitted mean (log10) [1] | normalized RNA/DNA level without ligand (log10) [2] | FACS-Seq fitted mean (log10) [3] | normalized RNA/DNA level with ligand (log10) [4] |
| --- | --- | --- | --- | --- |
| CUGAAA | 0.38 ± 0.12 | 1.986 ± 0.0076 | 0.578 ± 0.071 | 2 ± 0.014 |
| CUCUUA | 0.211 ± 0.012 | 2.0064 ± 0.0006 | 0.143 ± 0.3 | 2 ± 0.03 |
| GUCCGA | 0.497 ± 0.025 | 2.017 ± 0.0041 | 0.383 ± 0.061 | 2.007 ± 0.0092 |
| GUCCGG | -0.054 ± 0.18 | 2.042 ± 0.011 | -0.0351 ± 0.41 | 2.05 ± 0.063 |
| CUGCAG | 0.542 ± 0.11 | 1.91 ± 0.021 | 0.679 ± 0.4 | 1.977 ± 0.0074 |
| AUAGGU | 0.477 ± 0.19 | 1.87 ± 0.023 | 0.695 ± 0.3 | 2.01 ± 0.047 |
| GUGAAG | 0.207 ± 0.012 | 1.9352 ± 0.0013 | 0.436 ± 0.27 | 2.02 ± 0.043 |
| GUGAAA | -0.0108 ± 0.075 | 1.956 ± 0.0062 | 0.313 ± 0.017 | 1.981 ± 0.016 |
| GUGAAU | 0.0592 ± 0.055 | 1.944 ± 0.0083 | 0.217 ± 0.099 | 2 ± 0.043 |
| AUCGGA | 0.397 ± 0.17 | 1.99 ± 0.0013 | 0.345 ± 0.48 | 2 ± 0.039 |
| GUGGAC | 0.143 ± 0.12 | 1.868 ± 0.016 | -0.011 ± 0.21 | 1.975 ± 0.0039 |
| AUCGAC | 0.0463 ± 0.0065 | 2.041 ± 0.0079 | 0.0476 ± 0.024 | 2.01 ± 0.03 |
| AUCGAG | 0.076 ± 0.01 | 1.813 ± 0.017 | 0.217 ± 0.22 | 2 ± 0.032 |
| CUCGAG | 0.167 ± 0.042 | 1.96 ± 0.02 | 0.115 ± 0.2 | 1.977 ± 0.012 |
| AUGAUU | 0.418 ± 0.17 | 1.989 ± 0.0036 | 0.334 ± 0.023 | 2.02 ± 0.027 |
| AUGAUG | 0.408 ± 0.071 | 1.87 ± 0.023 | 0.544 ± 0.23 | 1.98 ± 0.023 |
| AUGACA | 0.187 ± 0.069 | 1.987 ± 0.0094 | 0.323 ± 0.037 | 2 ± 0.032 |
